This is an account of results in patent publication US20030152959.

The target of the data set is T1, GST-ERRα1 (Homo sapiens) (UniProt P11474).
T1 sequence: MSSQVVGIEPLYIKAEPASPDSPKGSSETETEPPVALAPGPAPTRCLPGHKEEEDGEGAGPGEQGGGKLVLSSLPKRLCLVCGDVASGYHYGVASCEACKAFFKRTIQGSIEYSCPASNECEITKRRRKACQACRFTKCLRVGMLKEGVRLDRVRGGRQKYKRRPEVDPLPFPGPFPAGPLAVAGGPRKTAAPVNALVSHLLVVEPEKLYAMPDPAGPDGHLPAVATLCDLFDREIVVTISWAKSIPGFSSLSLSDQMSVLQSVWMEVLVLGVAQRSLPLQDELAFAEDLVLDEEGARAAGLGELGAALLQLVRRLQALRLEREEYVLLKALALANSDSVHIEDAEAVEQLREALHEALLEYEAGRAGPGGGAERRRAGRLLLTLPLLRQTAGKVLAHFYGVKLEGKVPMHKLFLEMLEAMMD
The settings on record: cell-free transcription, HeLa nuclear extract, approximate.

As to SV40 genome / late promoter template, the activity (fold repression) stood at 3.
